# Assay results: publication PMC9680708
# What was measured:
# Assay in all cases: other fluorescence titration
# [1] = molecular target: FlAsH-labeled wild-type collybistin (CB) FRET sensor F1DA (rat)
# [2] = molecular target: FlAsH-labeled single-mutant (E262A) open-state collybistin FRET sensor F1smDA (rat)
# [3] = molecular target: FlAsH-labeled collybistin FRET sensor F28DA (rat)
# [4] = molecular target: FlAsH-labeled double-mutant (W24A/E262A) open-state collybistin FRET sensor F1dmDA (rat)
# [5] = molecular target: FlAsH-labeled collybistin FRET sensor F73DA (rat)
# [6] = molecular target: FlAsH-labeled collybistin FRET sensor F99DA (rat)
Substance,Kd [1] [µM],species-weighted average fluorescence lifetime of CFP in the sensor with ligand [1] [ns],Kd [2] [µM],species-weighted average fluorescence lifetime of CFP in the sensor with ligand [2] [ns],species-weighted average fluorescence lifetime of CFP in the sensor with ligand [3] [ns],Kd [4] [µM],species-weighted average fluorescence lifetime of CFP in the sensor with ligand [4] [ns],species-weighted average fluorescence lifetime of CFP in the sensor with ligand [5] [ns],species-weighted average fluorescence lifetime of CFP in the sensor with ligand [6] [ns]
free SH3 domain of collybistin (domain or fragment),373,1.44,,,,,,,
gephyrin linker followed by the E domain (GephLE) (domain or fragment),6.4,1.54,,,,,,,
intracellular cytosolic domain of neuroligin 2 (NL2icd) (from UniProt Q62888 700-836) (domain or fragment),,1.37,,,,,,,

# Results, then the substance that gave them:
Kd [1] [µM],species-weighted average fluorescence lifetime of CFP in the sensor with ligand [1] [ns],Kd [2] [µM],species-weighted average fluorescence lifetime of CFP in the sensor with ligand [2] [ns],species-weighted average fluorescence lifetime of CFP in the sensor with ligand [3] [ns],Kd [4] [µM],species-weighted average fluorescence lifetime of CFP in the sensor with ligand [4] [ns],species-weighted average fluorescence lifetime of CFP in the sensor with ligand [5] [ns],species-weighted average fluorescence lifetime of CFP in the sensor with ligand [6] [ns],Substance
4.5,1.56,47,0.62,1.4,43,0.64,1.03,1.2,full-length gephyrin (GephFL) (from UniProt Q03555 1-768) (natural protein)
6.3,1.36,,,,,,,,isolated gephyrin E domain (GephE) (domain or fragment)
